This is an account of results in patent US20110300156A1 (Genmab, published 2011).

In experiment [1] the target is T1, TFECDHis (extracellular domain of tissue factor, amino acid 1-251, with C-terminal His tag) (human, UniProt P13726 33-251).
T1 construct: range 1-251; The stated range 1-251 starts at residue 1 of NP-001984; also called extracellular domain of TF
As to the kind of experiment: competition ELISA, inhibition of FVIIa (100 nM) binding to coated TFECDHis. The procedure:
ELISA plates were coated overnight with TFECDHis (0.5 μg/mL, 100 μL per well). Plates were emptied, blocked with PBS containing 2% (v/v) chicken serum (1 hour, RT), and emptied again. […] Plates were washed and incubated with swine-anti-rabbit IgG-HRP antibody (1:2,500; DAKO). After washing, the immune complexes were visualized using ABTS as a substrate.

The target in experiment [2] is T2, human tissue factor (TF), membrane-bound on cells (human, UniProt P13726 33-295).
T2 construct: whole, on cells; also called cellular TF
As to the kind of experiment: FACS, MDA-MB-231 cells. The essentials: (§1)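 Flow cytometry readout of PE-labelled anti-human IgGFc bound to cells after a 30 min on-ice incubation with HuMab dilution series. Binding curves analysed by non-linear regression (sigmoidal dose-response, variable slope). HuMab-KLH served as negative control.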
A general note: A flow cytometer gives signals particle by particle.

Experiment [3] deals with T2, human tissue factor (TF), …. As to the kind of experiment: cell-based or functional assay.
Experiment [4] shares this target. As to the kind of experiment: FACS, MDA-MB-231 cells, 30 µg/mL. Put shortly: as §1
The target is the same in experiment [5]. As to the kind of experiment: FACS, Bx-PC3 cells. The essentials:
as §1

The target of experiment [6] is T1, TFECDHis (extracellular domain of …). As to the kind of experiment: ELISA, coated TFECDHis, mean of 3. The essentials:
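Plates coated overnight at +4° C with 0.5 μg/mL TFECDHis in PBS pH 7.4, blocked with 2% chicken serum. Serially diluted HuMabs bound 1 h at RT with shaking, detected with HRP anti-human IgG. Binding curves fitted by sigmoidal dose-response with variable slope; anti-KLH HuMab served as negative control.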
On the technique in general: An ELISA detects its analyte on a solid surface through an enzyme-linked reagent.

For experiment [7] the target is unchanged. As to the kind of experiment: SPR BIAcore 3000, HuMab immobilized, TFECDHis analyte. On the procedure: (§2) Antibody binding to TF was analyzed by surface plasmon resonance in a BIAcore 3000 (GE Healthcare). TFECDHis was used for the analysis. HuMab antibodies (500 resonance units) were immobilized on the CM-5 sensor chip according to the procedure recommended by the manufacturer. Briefly, after surface activation by EDC and NHS HuMab antibody was injected over the activated CM-5 surface in 10 mM sodium-acetate, pH ranging from 4.0 to 5.5 at 5 μl/min. followed by 1 M Ethanolamine for deactivation. Concentration series of TFECDHis in HBS-EP buffer were injected over the immobilized antibodies at a flow rate of 30 μl/min for 180 sec. Regeneration of the HuMab surface was performed by injection of 10 mM Glycine-HCl pH 2.0 or 10 mM sodium acetate pH 3.0. Kinetic analysis was performed using double reference subtraction and model 1:1 (langmuir) binding analysis.

The target in experiment [8] is T3, murine tissue factor (TF) on transfected HEK293F cells (murine, UniProt P20352 29-294).
T3 construct: whole, on cells; also called murine TF; TFmm
T3 sequence (looked up): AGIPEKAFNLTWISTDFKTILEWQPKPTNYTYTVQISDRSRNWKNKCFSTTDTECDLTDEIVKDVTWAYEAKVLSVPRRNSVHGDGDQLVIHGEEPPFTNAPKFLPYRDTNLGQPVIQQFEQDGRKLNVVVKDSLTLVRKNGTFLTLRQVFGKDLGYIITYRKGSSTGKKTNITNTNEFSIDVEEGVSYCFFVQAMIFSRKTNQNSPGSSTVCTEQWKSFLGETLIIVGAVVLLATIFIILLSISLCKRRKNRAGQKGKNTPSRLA
As to the kind of experiment: FACS on transfected HEK293F cells, 30 µg/mL antibody [panel I].

In experiment [9] the target is T1, TFECDHis (extracellular domain of …). As to the kind of experiment: SPR BIAcore 3000, HuMab immobilized, TFECDHis analyte; footnote: n.a. not assessable = >10^-3 sec^-1. On the procedure: as §2
On the technique in general: SPR reads the build-up and loss of mass on a sensor chip optically.

The target of experiment [10] is T2, human tissue factor (TF), …. As to the kind of experiment: FACS, Bx-PC3 cells, 30 µg/mL. The essentials: as §1
Experiment [11] shares this target. As to the kind of experiment: FACS, TF transfected CHO cells (S1015-TF). Put shortly: as §1
Experiment [12] shares this target. As to the kind of experiment: FACS, A431 cells. Put shortly:
as §1

The target is the same in experiment [13]. As to the kind of experiment: FACS, A431 cells, 30 µg/mL. Put shortly:
as §1

The target in experiment [14] is T4, TF (Innovin) (UniProt P13726 33-295, limits assumed). As to the kind of experiment: cell-based or functional assay.
The target of experiment [15] is T3, murine tissue factor (TF) on …. As to the kind of experiment: FACS on transfected HEK293F cells, 30 µg/mL antibody [panel J].
Experiment [16] has as its target T2, human tissue factor (TF), …. As to the kind of experiment: FACS, TF transfected CHO cells (S1015-TF), 7.5 µg/mL. Put shortly: as §1
For experiment [17], the target named is T3, murine tissue factor (TF) on …. As to the kind of experiment: FACS on transfected HEK293F cells, 30 µg/mL antibody [panel H].
For experiment [18], the target named is T2, human tissue factor (TF), …. As to the kind of experiment: cell-based or functional assay. The source holds these as a separate data set.
For experiment [19] the target is unchanged. As to the kind of experiment: cell-based or functional assay. This is another data set of the same source.
The target in experiment [20] is T4, TF (Innovin). As to the kind of experiment: cell-based or functional assay. The source holds these as a separate data set.

B1: anti-TF HuMab 087-Lg6 (antibody, V domains shown)
VH: EVQLVQSGAEVKKPGESLKISCKGSGYSFTSCWIGWVRQMPGKGLEWMGIIYPGDSDTRYSPSFQGQVTISADKSISTAYLQWSSLKASDTAMYYCARHKLGMDHDAFDIWGQGTMVTVSS
VL: DIQMTQSPSSLSASVGDRVTITCRASQGISSWLAWYQQKPEKAPKSLIYAASSLQSGVPSRFSGSGSGTDFTLTISSLQPEDFATYYCQQYNSYPPTFGQGTTVEVK
notes: Human monoclonal antibody from HuMab mice
For B1, the max inhibition in [1] was 35%. The EC50 (in general, the midpoint of the concentration-response curve) amounted to 8.28 nM in experiment [2], 7.19 nM in experiment [5] and 0.09 nM in [6]. Besides, the “max inhibition of FVIIa induced IL-8 release (MDA-MB-231)” value in experiment [3] amounted to 4.3%. Further, the “Max MFI” value in [4] came out at 1110; in experiment [10], 1030. In addition, in experiment [7], the kon (as a rule, a measure of how fast the partners come together) was 591000 M⁻¹ s⁻¹. The binding result in experiment [8] is given as “no binding (tested: 30 µg/mL)”. Also, in [9], the off-rate (koff) (commonly the rate constant with which the complex falls apart) was > 0.001 s⁻¹.

B2: anti-TF HuMab 092-A09 (antibody, V domains shown)
VH: EVQLLESGGGLVQPGGSLRLSCAASGFTFNNYAMSWVRQAPGKGLEWVSSISGSGGRTYYADSVKGRFTISRDNSKNTLFLQMNSLRAEDTAVYYCAKTPWGYYFDYWGQGTLVTVSS
VL: DIQMTQSPSSLSASVGDRVTITCRASQGISSRLAWYQQKPEKAPKSLIYAASSLQSGVPSRFSGSGSGTDFTLTISSLQPEDFATYYCQQYNSYPYTFGQGTKLEIK
notes: as for B1
B2 returned a max inhibition in experiment [1] of 90%. The concentration giving a half-maximal response (EC50) in experiment [11] turned out to be 1.32 nM; in experiment [2] it was 0.53 nM; in experiment [12] it was 0.83 nM; in experiment [5] it was 0.84 nM; in [6], 0.18 nM. Further, the “Max MFI” value in experiment [13] was determined as 3140; in experiment [4] it was 2290; in [16], 5410; in [10], 1260. Further, in [14], the “IC50, inhibition of blood coagulation (TF induced clotting time)” value amounted to 0.2 nM. The binding result in experiment [15] is given as “no binding (tested: 30 µg/mL)”. Further, in experiment [7], the Kd (commonly the equilibrium constant for the complex coming apart) is 14.1 nM.

B3: anti-TF HuMab 044 (antibody, V domains shown)
VH: QVQLVESGGGVVQPGRSLRLSCAASGFTFSDYAMHWVRQAPGKGLEWVAVIPYDGDNKYYADSVKGRFTISRDNSKNTLYLQMNSLRAEDTAVYYCAREDWGLEVDYWGQGALVTVSS
VL: AIQLTQSPSSLSASVGDRVTITCRASQGINSALAWYQQKPGKAPKLLIYDASSLESGVPSRFSGSGSGTDFTLTISSLQPEDFATYYCQQFNSYPLTFGGGTKVEIK
notes: as for B1
B3: the binding result in experiment [17] is “no binding (tested: 30 µg/mL)”. The “% max inhibition of FVIIa induced ERK phosphorylation (A431)” value in experiment [18] came out at 45%. Moreover, the “IC50, inhibition of FVIIa induced ERK phosphorylation (A431)” value in [18] was > 66.6 nM. Moreover, in experiment [1], the IC50 (as a rule, the concentration that gives 50% inhibition) came out at 0.8 nM. Besides, the max inhibition in experiment [1] was 54%. The concentration giving a half-maximal response (EC50) in [11] was 2.13 nM; in experiment [2] it was 0.87 nM; in experiment [12], 1.45 nM; in experiment [5], 1.88 nM. Moreover, the “IC50, inhibition of FVIIa induced IL-8 release (MDA-MB-231)” value in experiment [3] came out at 74.6 nM. For the same molecule, in [3], the “max inhibition of FVIIa induced IL-8 release (MDA-MB-231)” value is 17.2%. The “Max MFI” value in experiment [13] amounted to 2650; in experiment [4] it was 1880; in [16] it was 5020; in experiment [10], 1140. In addition, in experiment [19], the “EC50 of ADCC, A431 cells” value came to 0.19 nM. For the same molecule, in experiment [19], the “EC50 of ADCC, Bx-PC3 cells” value was found to be 0.12 nM. Further, the “EC50 of ADCC, MDA-MB-231 cells” value in experiment [19] came out at 0.08 nM. Also, in [20], the “% max inhibition of FXa generation” value came to 3%.
